In US20230160883A1:

Columns and labels:
[1] = target: TZSV N protein (recombinant, expressed from pET30a-TZSV in E. coli BL21 (DE3)) (tomato zonate spot virus); assay: indirect ELISA, negative of the row of FL484-1
[2] = target: TZSV N protein (recombinant, expressed from pET30a-TZSV in E. coli BL21 (DE3)) (tomato zonate spot virus); assay: indirect ELISA, negative of the row of FL484-2
[3] = target: TZSV N protein (recombinant, expressed from pET30a-TZSV in E. coli BL21 (DE3)) (tomato zonate spot virus); assay: indirect ELISA, negative of the row of FL484-3
[4] = target: TZSV N protein (recombinant, expressed from pET30a-TZSV in E. coli BL21 (DE3)) (tomato zonate spot virus); assay: indirect ELISA, negative of the row of FL484-4
[5] = target: TZSV N protein (recombinant, expressed from pET30a-TZSV in E. coli BL21 (DE3)) (tomato zonate spot virus); assay: indirect ELISA, negative of the row of FL484-5
[6] = target: TZSV N protein (recombinant, expressed from pET30a-TZSV in E. coli BL21 (DE3)) (tomato zonate spot virus); assay: indirect ELISA, negative of the row of FL484-6
[7] = target: TZSV N protein (recombinant, expressed from pET30a-TZSV in E. coli BL21 (DE3)) (tomato zonate spot virus); assay: indirect ELISA, negative of the row of FL484-7
[8] = target: TZSV N protein (recombinant, expressed from pET30a-TZSV in E. coli BL21 (DE3)) (tomato zonate spot virus); assay: indirect ELISA, negative of the row of FL484-8
[9] = target: TZSV N protein (recombinant, expressed from pET30a-TZSV in E. coli BL21 (DE3)) (tomato zonate spot virus); assay: indirect ELISA, negative of the row of FL484-9
[10] = target: TZSV N protein (recombinant, expressed from pET30a-TZSV in E. coli BL21 (DE3)) (tomato zonate spot virus); assay: indirect ELISA, negative of the row of FL484-10
[11] = target: TZSV N protein (recombinant, expressed from pET30a-TZSV in E. coli BL21 (DE3)) (tomato zonate spot virus); assay: indirect ELISA, negative of the row of FL484-11
[12] = target: TZSV N protein (recombinant, expressed from pET30a-TZSV in E. coli BL21 (DE3)) (tomato zonate spot virus); assay: indirect ELISA, negative of the row of FL484-12
[13] = target: TZSV N protein (recombinant, expressed from pET30a-TZSV in E. coli BL21 (DE3)) (tomato zonate spot virus); assay: indirect ELISA, negative of the row of FL484-13
[14] = target: TZSV N protein (recombinant, expressed from pET30a-TZSV in E. coli BL21 (DE3)) (tomato zonate spot virus); assay: indirect ELISA, negative of the row of FL484-14
[15] = target: TZSV N protein (recombinant, expressed from pET30a-TZSV in E. coli BL21 (DE3)) (tomato zonate spot virus); assay: indirect ELISA, negative of the row of FL484-15
[16] = target: TZSV N protein (recombinant, expressed from pET30a-TZSV in E. coli BL21 (DE3)) (tomato zonate spot virus); assay: indirect ELISA, negative of the row of FL484-16
[17] = target: TZSV N protein (recombinant, expressed from pET30a-TZSV in E. coli BL21 (DE3)) (tomato zonate spot virus); assay: indirect ELISA, negative of the row of FL484-17
[18] = target: TZSV N protein (recombinant, expressed from pET30a-TZSV in E. coli BL21 (DE3)) (tomato zonate spot virus); assay: indirect ELISA, negative of the row of FL484-18
[19] = target: TZSV N protein (recombinant, expressed from pET30a-TZSV in E. coli BL21 (DE3)) (tomato zonate spot virus); assay: indirect ELISA, negative of the row of FL484-19
[20] = target: TZSV N protein (recombinant, expressed from pET30a-TZSV in E. coli BL21 (DE3)) (tomato zonate spot virus); assay: indirect ELISA, negative of the row of FL484-20
[21] = target: TZSV N protein (recombinant, expressed from pET30a-TZSV in E. coli BL21 (DE3)) (tomato zonate spot virus); assay: indirect ELISA, negative of the row of FL484-21
[22] = target: TZSV N protein (recombinant, expressed from pET30a-TZSV in E. coli BL21 (DE3)) (tomato zonate spot virus); assay: indirect ELISA, negative of the row of FL484-22
[23] = target: TZSV N protein (recombinant, expressed from pET30a-TZSV in E. coli BL21 (DE3)) (tomato zonate spot virus); assay: indirect ELISA, negative of the row of FL484-23
[24] = target: TZSV N protein (recombinant, expressed from pET30a-TZSV in E. coli BL21 (DE3)) (tomato zonate spot virus); assay: indirect ELISA, negative of the row of FL484-24
[25] = target: TZSV N protein (recombinant, expressed from pET30a-TZSV in E. coli BL21 (DE3)) (tomato zonate spot virus); assay: indirect ELISA, negative of the row of FL484-25
[26] = target: TZSV N protein (recombinant, expressed from pET30a-TZSV in E. coli BL21 (DE3)) (tomato zonate spot virus); assay: indirect ELISA, negative of the row of FL484-26
[27] = target: TZSV N protein (recombinant, expressed from pET30a-TZSV in E. coli BL21 (DE3)) (tomato zonate spot virus); assay: indirect ELISA, negative of the row of FL484-27
[28] = target: TZSV N protein (recombinant, expressed from pET30a-TZSV in E. coli BL21 (DE3)) (tomato zonate spot virus); assay: indirect ELISA, negative of the row of FL484-28
[29] = target: TZSV N protein (recombinant, expressed from pET30a-TZSV in E. coli BL21 (DE3)) (tomato zonate spot virus); assay: indirect ELISA, negative of the row of FL484-29
[30] = target: TZSV N protein (recombinant, expressed from pET30a-TZSV in E. coli BL21 (DE3)) (tomato zonate spot virus); assay: indirect ELISA, negative of the row of FL484-30
[31] = target: TZSV N protein (recombinant, expressed from pET30a-TZSV in E. coli BL21 (DE3)) (tomato zonate spot virus); assay: indirect ELISA, negative of the row of FL484-31
[32] = target: TZSV N protein (recombinant, expressed from pET30a-TZSV in E. coli BL21 (DE3)) (tomato zonate spot virus); assay: indirect ELISA, negative of the row of FL484-32
[33] = target: TZSV N protein (recombinant, expressed from pET30a-TZSV in E. coli BL21 (DE3)) (tomato zonate spot virus); assay: indirect ELISA, negative of the row of FL484-33
[34] = target: TZSV N protein (recombinant, expressed from pET30a-TZSV in E. coli BL21 (DE3)) (tomato zonate spot virus); assay: indirect ELISA, negative of the row of FL484-34
[35] = target: TZSV N protein (recombinant, expressed from pET30a-TZSV in E. coli BL21 (DE3)) (tomato zonate spot virus); assay: indirect ELISA, negative of the row of FL484-35
[36] = target: TZSV N protein (recombinant, expressed from pET30a-TZSV in E. coli BL21 (DE3)) (tomato zonate spot virus); assay: indirect ELISA, negative control of the row of M210045
[37] = target: TZSV N protein (recombinant, expressed from pET30a-TZSV in E. coli BL21 (DE3)) (tomato zonate spot virus); assay: indirect ELISA, negative control of the row of M210046
[38] = target: TZSV N protein (recombinant, expressed from pET30a-TZSV in E. coli BL21 (DE3)) (tomato zonate spot virus); assay: indirect ELISA, negative control of the row of M210047
[39] = target: TZSV N protein (recombinant, expressed from pET30a-TZSV in E. coli BL21 (DE3)) (tomato zonate spot virus); assay: indirect ELISA, negative control of the row of M210048

negative control (mouse serum before immunization)
OD450 [1]: 0.169 OD
OD450 [2]: 0.208 OD
OD450 [3]: 0.14 OD
OD450 [4]: 0.23 OD
OD450 [5]: 0.237 OD
OD450 [6]: 0.24 OD
OD450 [7]: 0.24 OD
OD450 [8]: 0.196 OD
OD450 [9]: 0.171 OD
OD450 [10]: 0.158 OD
OD450 [11]: 0.052 OD
OD450 [12]: 0.157 OD
OD450 [13]: 0.155 OD
OD450 [14]: 0.19 OD
OD450 [15]: 0.187 OD
OD450 [16]: 0.209 OD
OD450 [17]: 0.186 OD
OD450 [18]: 0.179 OD
OD450 [19]: 0.164 OD
OD450 [20]: 0.236 OD
OD450 [21]: 0.18 OD
OD450 [22]: 0.163 OD
OD450 [23]: 0.232 OD
OD450 [24]: 0.203 OD
OD450 [25]: 0.234 OD
OD450 [26]: 0.161 OD
OD450 [27]: 0.197 OD
OD450 [28]: 0.229 OD
OD450 [29]: 0.215 OD
OD450 [30]: 0.265 OD
OD450 [31]: 0.172 OD
OD450 [32]: 0.194 OD
OD450 [33]: 0.221 OD
OD450 [34]: 0.193 OD
OD450 [35]: 0.19 OD
OD450 [36]: 0.137 OD
OD450 [37]: 0.146 OD
OD450 [38]: 0.137 OD
OD450 [39]: 0.125 OD
